From patent US20250218531A1 (ABSCI, published 2025)
Values joined by “and” are separate entries in the source; they are usually repeats but may differ in a detail not shown here. Equal entries are not always repeated.

What was measured:
[1] = biological target: human epidermal growth factor receptor 2 (HER2) extracellular domain (human, UniProt P04626 23-629); assay: SPR
[2] = biological target: human epidermal growth factor receptor 2 (HER2) extracellular domain (human, UniProt P04626 23-629); assay: SPR, Fab format

Binder	Kd [1]	log(KD (M)) [1]	Kd [2]	log(KD (M)) [2]
Trastuzumab HCDR3 variant AKYVASGYSLA (Fab, V domains shown) VH: EVQLVESGGGLVQPGGSLRLSCAASGFNIKDTYIHWVRQAPGKGLEWVARIYPTNGYTRYADSVKGRFTISADTSKNTAYLQMNSLRAEDTAVYYCAKYVASGYSLAWGQGTLVTVSS VL: not shown	109 nM	-6.96 log(M)	–	–
Trastuzumab HCDR3 variant AKYVLVGSYGV (Fab, V domains shown) VH: EVQLVESGGGLVQPGGSLRLSCAASGFNIKDTYIHWVRQAPGKGLEWVARIYPTNGYTRYADSVKGRFTISADTSKNTAYLQMNSLRAEDTAVYYCAKYVLVGSYGVWGQGTLVTVSS VL: not shown	50.2 nM and 50.1 nM	-7.3 log(M)	–	–
Trastuzumab HCDR3 variant ATGYSYLRFYD (Fab, V domains shown) VH: EVQLVESGGGLVQPGGSLRLSCAASGFNIKDTYIHWVRQAPGKGLEWVARIYPTNGYTRYADSVKGRFTISADTSKNTAYLQMNSLRAEDTAVYYCATGYSYLRFYDWGQGTLVTVSS VL: not shown	164 nM	-6.79 log(M)	–	–
Trastuzumab HCDR3 variant ARYSYYRYYFE (Fab, V domains shown) VH: EVQLVESGGGLVQPGGSLRLSCAASGFNIKDTYIHWVRQAPGKGLEWVARIYPTNGYTRYADSVKGRFTISADTSKNTAYLQMNSLRAEDTAVYYCARYSYYRYYFEWGQGTLVTVSS VL: not shown	74.6 nM	-7.13 log(M)	–	–
Trastuzumab HCDR3 variant ATGYSYLRYYD (Fab, V domains shown) VH: EVQLVESGGGLVQPGGSLRLSCAASGFNIKDTYIHWVRQAPGKGLEWVARIYPTNGYTRYADSVKGRFTISADTSKNTAYLQMNSLRAEDTAVYYCATGYSYLRYYDWGQGTLVTVSS VL: not shown	273 nM	-6.56 log(M)	–	–
Trastuzumab HCDR3 variant ARFDLVGAFDY (Fab, V domains shown) VH: EVQLVESGGGLVQPGGSLRLSCAASGFNIKDTYIHWVRQAPGKGLEWVARIYPTNGYTRYADSVKGRFTISADTSKNTAYLQMNSLRAEDTAVYYCARFDLVGAFDYWGQGTLVTVSS VL: not shown	151 nM	-6.82 log(M)	–	–
Trastuzumab HCDR3 variant ASYAGYSPFDY (Fab, V domains shown) VH: EVQLVESGGGLVQPGGSLRLSCAASGFNIKDTYIHWVRQAPGKGLEWVARIYPTNGYTRYADSVKGRFTISADTSKNTAYLQMNSLRAEDTAVYYCASYAGYSPFDYWGQGTLVTVSS VL: not shown	202 nM	-6.7 log(M)	–	–
Trastuzumab HCDR3 variant ATWPHINTRIYAFDP (Fab, V domains shown) VH: EVQLVESGGGLVQPGGSLRLSCAASGFNIKDTYIHWVRQAPGKGLEWVARIYPTNGYTRYADSVKGRFTISADTSKNTAYLQMNSLRAEDTAVYYCATWPHINTRIYAFDPWGQGTLVTVSS VL: not shown	117 nM	-6.93 log(M)	–	–
Trastuzumab HCDR3 variant VRGYGYNFYYHGFSY (Fab, V domains shown) VH: EVQLVESGGGLVQPGGSLRLSCAASGFNIKDTYIHWVRQAPGKGLEWVARIYPTNGYTRYADSVKGRFTISADTSKNTAYLQMNSLRAEDTAVYYCVRGYGYNFYYHGFSYWGQGTLVTVSS VL: not shown	147 nM and 146 nM	-6.83 log(M)	–	–
Trastuzumab HCDR3 variant ARSGGHGVNGHWRSF (Fab, V domains shown) VH: EVQLVESGGGLVQPGGSLRLSCAASGFNIKDTYIHWVRQAPGKGLEWVARIYPTNGYTRYADSVKGRFTISADTSKNTAYLQMNSLRAEDTAVYYCARSGGHGVNGHWRSFWGQGTLVTVSS VL: not shown	49.8 nM	-7.3 log(M)	–	–
Trastuzumab HCDR3 variant AYTGAPHGGYHYYAY (Fab, V domains shown) VH: EVQLVESGGGLVQPGGSLRLSCAASGFNIKDTYIHWVRQAPGKGLEWVARIYPTNGYTRYADSVKGRFTISADTSKNTAYLQMNSLRAEDTAVYYCAYTGAPHGGYHYYAYWGQGTLVTVSS VL: not shown	49.4 nM	-7.31 log(M)	–	–
Trastuzumab HCDR3 variant ARGGYYGYWYYFDY (Fab, V domains shown) VH: EVQLVESGGGLVQPGGSLRLSCAASGFNIKDTYIHWVRQAPGKGLEWVARIYPTNGYTRYADSVKGRFTISADTSKNTAYLQMNSLRAEDTAVYYCARGGYYGYWYYFDYWGQGTLVTVSS VL: not shown	51.2 nM	-7.29 log(M)	–	–
Trastuzumab HCDR3 variant ARSHYGYYDYYTDF (Fab, V domains shown) VH: EVQLVESGGGLVQPGGSLRLSCAASGFNIKDTYIHWVRQAPGKGLEWVARIYPTNGYTRYADSVKGRFTISADTSKNTAYLQMNSLRAEDTAVYYCARSHYGYYDYYTDFWGQGTLVTVSS VL: not shown	116 nM	-6.94 log(M)	–	–
Trastuzumab HCDR3 variant ARYRGGYGGYVFDP (Fab, V domains shown) VH: EVQLVESGGGLVQPGGSLRLSCAASGFNIKDTYIHWVRQAPGKGLEWVARIYPTNGYTRYADSVKGRFTISADTSKNTAYLQMNSLRAEDTAVYYCARYRGGYGGYVFDPWGQGTLVTVSS VL: not shown	120 nM	-6.92 log(M)	–	–
Trastuzumab HCDR3 variant ARLAFDSVSFYSDY (Fab, V domains shown) VH: EVQLVESGGGLVQPGGSLRLSCAASGFNIKDTYIHWVRQAPGKGLEWVARIYPTNGYTRYADSVKGRFTISADTSKNTAYLQMNSLRAEDTAVYYCARLAFDSVSFYSDYWGQGTLVTVSS VL: not shown	187 nM	-6.73 log(M)	–	–
Multi-step trastuzumab HCDR3 variant ARSGGSGYYYYDY (SEQ ID NO: 524) (Fab, V domains shown) VH: EVQLVESGGGLVQPGGSLRLSCAASGFNIKDTYIHWVRQAPGKGLEWVARIYPTNGYTRYADSVKGRFTISADTSKNTAYLQMNSLRAEDTAVYYCARSGGSGYYYYDYWGQGTLVTVSS VL: not shown	–	–	1830 nM	-5.74 log M
De novo trastuzumab HCDR1|2|3 variant GFNFKDTY / IYPANGYT / ASDGGSYSYAFDY (Fab, V domains shown, also called AI Design 5) VH: EVQLVESGGGLVQPGGSLRLSCAASGFNFKDTYIHWVRQAPGKGLEWVARIYPANGYTRYADSVKGRFTISADTSKNTAYLQMNSLRAEDTAVYYCASDGGSYSYAFDYWGQGTLVTVSS VL: not shown	–	–	642 nM	-6.19 log M
De novo trastuzumab HCDR2|3 variant IDPADGYT / AREGGYGYYAMDY (Fab, V domains shown, also called AI Design 6) VH: EVQLVESGGGLVQPGGSLRLSCAASGFNIKDTYIHWVRQAPGKGLEWVARIDPADGYTRYADSVKGRFTISADTSKNTAYLQMNSLRAEDTAVYYCAREGGYGYYAMDYWGQGTLVTVSS VL: not shown	–	–	160 nM	-6.8 log M
De novo trastuzumab HCDR2|3 variant IDPENGYT / ARVGGYGYYYYDY (Fab, V domains shown) VH: EVQLVESGGGLVQPGGSLRLSCAASGFNIKDTYIHWVRQAPGKGLEWVARIDPENGYTRYADSVKGRFTISADTSKNTAYLQMNSLRAEDTAVYYCARVGGYGYYYYDYWGQGTLVTVSS VL: not shown	–	–	277 nM	-6.56 log M
De novo trastuzumab HCDR2|3 variant IYPANGYT / ASSGGSSSYYYNY (Fab, V domains shown) VH: EVQLVESGGGLVQPGGSLRLSCAASGFNIKDTYIHWVRQAPGKGLEWVARIYPANGYTRYADSVKGRFTISADTSKNTAYLQMNSLRAEDTAVYYCASSGGSSSYYYNYWGQGTLVTVSS VL: not shown	–	–	554 nM	-6.26 log M
De novo trastuzumab HCDR2|3 variant IYPSNGYT / ARSGYYYSYSFDY (Fab, V domains shown) VH: EVQLVESGGGLVQPGGSLRLSCAASGFNIKDTYIHWVRQAPGKGLEWVARIYPSNGYTRYADSVKGRFTISADTSKNTAYLQMNSLRAEDTAVYYCARSGYYYSYSFDYWGQGTLVTVSS VL: not shown	–	–	348 nM	-6.46 log M
De novo trastuzumab HCDR2|3 variant IYPSNGYT / ARSSGYYSYSYDY (Fab, V domains shown) VH: EVQLVESGGGLVQPGGSLRLSCAASGFNIKDTYIHWVRQAPGKGLEWVARIYPSNGYTRYADSVKGRFTISADTSKNTAYLQMNSLRAEDTAVYYCARSSGYYSYSYDYWGQGTLVTVSS VL: not shown	–	–	230 nM	-6.64 log M
De novo trastuzumab HCDR2|3 variant IYPEDGST / ARSGGSSTYAYDY (Fab, V domains shown) VH: EVQLVESGGGLVQPGGSLRLSCAASGFNIKDTYIHWVRQAPGKGLEWVARIYPEDGSTRYADSVKGRFTISADTSKNTAYLQMNSLRAEDTAVYYCARSGGSSTYAYDYWGQGTLVTVSS VL: not shown	–	–	669 nM	-6.17 log M
De novo trastuzumab HCDR1|2|3 variant GFNIKDYY / IYPSRGYT / ARHGSEGRYTMDV (Fab, V domains shown, also called AI Design 3) VH: EVQLVESGGGLVQPGGSLRLSCAASGFNIKDYYIHWVRQAPGKGLEWVARIYPSRGYTRYADSVKGRFTISADTSKNTAYLQMNSLRAEDTAVYYCARHGSEGRYTMDVWGQGTLVTVSS VL: not shown	–	–	192 nM	-6.72 log M
De novo trastuzumab HCDR2|3 variant IYPANGYT / ASSGGGYSYYYTY (Fab, V domains shown) VH: EVQLVESGGGLVQPGGSLRLSCAASGFNIKDTYIHWVRQAPGKGLEWVARIYPANGYTRYADSVKGRFTISADTSKNTAYLQMNSLRAEDTAVYYCASSGGGYSYYYTYWGQGTLVTVSS VL: not shown	–	–	476 nM	-6.32 log M
De novo trastuzumab HCDR2|3 variant IYPANGYT / AREGGVGYYSFAY (Fab, V domains shown) VH: EVQLVESGGGLVQPGGSLRLSCAASGFNIKDTYIHWVRQAPGKGLEWVARIYPANGYTRYADSVKGRFTISADTSKNTAYLQMNSLRAEDTAVYYCAREGGVGYYSFAYWGQGTLVTVSS VL: not shown	–	–	213 nM	-6.67 log M
De novo trastuzumab HCDR1|2|3 variant GFNIKDTW / IDPANGYT / ARVGGRGYYYYDY (Fab, V domains shown, also called AI Design 4) VH: EVQLVESGGGLVQPGGSLRLSCAASGFNIKDTWIHWVRQAPGKGLEWVARIDPANGYTRYADSVKGRFTISADTSKNTAYLQMNSLRAEDTAVYYCARVGGRGYYYYDYWGQGTLVTVSS VL: not shown	–	–	394 nM	-6.4 log M
De novo trastuzumab HCDR1|2|3 variant GFNISDYY / IYPSSGYT / ARDGGVGSYSMDV (Fab, V domains shown, also called AI Design 2) VH: EVQLVESGGGLVQPGGSLRLSCAASGFNISDYYIHWVRQAPGKGLEWVARIYPSSGYTRYADSVKGRFTISADTSKNTAYLQMNSLRAEDTAVYYCARDGGVGSYSMDVWGQGTLVTVSS VL: not shown	–	–	1320 nM	-5.88 log M
De novo trastuzumab HCDR2|3 variant IDPANGYT / ARVGGRGYYYYDY (Fab, V domains shown, also called AI Design 7) VH: EVQLVESGGGLVQPGGSLRLSCAASGFNIKDTYIHWVRQAPGKGLEWVARIDPANGYTRYADSVKGRFTISADTSKNTAYLQMNSLRAEDTAVYYCARVGGRGYYYYDYWGQGTLVTVSS VL: not shown	–	–	134 nM	-6.87 log M
